Assay [1] addresses Mg-ATP-actin (skeletal muscle actin, assembled into filaments) (rabbit or chicken) (UniProt P68135). Nature of the assay: single-molecule two-color TIRFM.
For assay [2] the target is unchanged. Nature of the assay: single-color TIRFM of actin elongation rates.
Assay [3] shares this target. Put plainly: bulk seeded pyrene actin assembly.
For assay [4] the target is unchanged. Nature of the assay: single-molecule two-color TIRFM. The source holds these as a separate data set.
For assay [5] the target is unchanged. Nature of the assay: single-molecule two-color TIRFM. This is another data set of the same source.

Like-named read-outs stand apart in the source and are kept apart here.

For the substance MBP-SNAP(549)-EnaΔLΔCC-GCN4, in assay [1], the processive run length tau, 2-filament trailing barbed ends came out at 1.5 s.
For the substance unlabeled UNC-34 (natural protein), the equilibrium dissociation constant (Kd) in assay [2] worked out at 6.7 nM; in assay [3], 10.2 nM.
Turning to SNAP(549)-UNC-34 (natural protein), in assay [1], the average residence time tau, single filament barbed ends came to 1.2 s and the processive run length tau, trailing barbed ends of 2-filament fascin bundles amounted to 2.9 s.
“unlabeled VASP (from UniProt P50552 1-380) (natural protein)”: the results for the Kd in assay [2] and in assay [3] were 12.2 nM and 10.8 nM, respectively.
MBP-SNAP(549)-EnaΔLΔCC-Foldon: in assay [1], the processive run length tau, 2-filament trailing barbed ends was determined as 8.9 s and the processive run length tau, 3- or more filament trailing barbed ends worked out at 11.2 s.
Consider “unlabeled EnaΔL (from UniProt Q8T4F7 1-980) (natural protein)”, for which the Kd in assay [2] is 3.2 nM; in assay [3] it was 0.7 nM.
In assay [4], “SNAP(549)-EnaΔL (from UniProt Q8T4F7 1-980) (natural protein)” yielded an average processive run length tau, leading barbed ends of 10.1 s and an average processive run length tau, trailing barbed ends of 28.1 s. Also, in assay [5], the average residence time tau, single filament barbed ends stood at 8.9 s and the average residence time tau, trailing barbed ends of a two-filament bundle was determined as 16.8 s. Also, in assay [1], the average processive run length tau, leading barbed ends was 8.4 s; the average processive run length tau, trailing barbed ends was found to be 23.7 s; the average residence time tau, single filament barbed ends was 10 s; the average residence time tau, trailing barbed ends of a two-filament bundle was 21.7 s.
In assay [1], “SNAP(549)-VASP (from UniProt P50552 1-380) (natural protein)” showed an average residence time tau, single filament barbed ends of 1 s and a processive run length tau, trailing barbed ends of 2-filament fascin bundles of 2.6 s.

The values are drawn from PMC6589784.
